Assay: yeast display, Sf9 membrane polyspecificity reagent, FACS + sequencing; frameworks hold sequencing errors
Procedure, shortened: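 Genes from sorted yeast were amplified by colony PCR, read by MiSeq 2 × 250 sequencing and filtered on CDR length. These cells carried a synthetic nanobody library in Saccharomyces cerevisiae BJ5465 and were sorted by FACS into low and high (top ~1%) gates on anti-HA and streptavidin fluorescence. Polyreactivity is labelled according to the gate of origin.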

Q: For “QVQLVESGGGLVQAGGSLRLSCAASGLTFAYYGMGWYRQAPGKEMELVAAITSSGGSTYYADSVKGRFTISRDNAKNTVYLQMNSLKPEDTAVYYCAAFVRQYGFDYWGQGTQVTVSS”, which “polyreactivity (PSR sort gate)” value is on record?
A: low polyreactivity

Q: Which “polyreactivity (PSR sort gate)” value does the source give for “QVQLVESGGGLVQAGGSLRLSCAASGLTFCPNAMGWYRQAPGKEREFVASISISGRTYYADSVKGRFTISRDNAKNTVYLLMNSLKPEDTAVYYCAARYVRSGLYRKYDYWGQGTQVTVSS” here?
A: high polyreactivity

Q: For “QVQLVESGGGLVQAGGSLRLSCAASGLTFDANAMGWYIQAPGKEREFVAVISWSDGGTYYADSVKGRFTISRDNAKNTVYLQLNSLKPEDTAVYYCNADFYYVYGNTRRYRYFEMEYWGQGTQVTVSS”, which “polyreactivity (PSR sort gate)” value is on record?
A: low polyreactivity

Q: With “QVQLVESGGGLVQAGGSLRLSCAASGLTFDAYAMGWYRQAPGKERELVAAISSGGNSYYADSVKGRFTISRDNAKNTVYLQMNSLKPEDTAVYYCNAVGYYKYFFLAYEYDYWGQGTQVTVSS” as the sequence, how does the “polyreactivity (PSR sort gate)” value read?
A: low polyreactivity

Q: Which “polyreactivity (PSR sort gate)” value does the source give for “QVQLVESGGGLVQAGGSLRLSCAASGLTFDAYAMGWYRQAPGKERELVAAISSGGNTYYADSVKGRFTISRDNAKNTVYLQMNSLKPEDTAVYYCNAVGYYKYFVLAYEYDYWGQGTQVTVSS” here?
A: low polyreactivity

Q: With “QVQLVESGGGLVQAGGSLRLSCAASGLTFDGNTMGWYRQAPGKERELVAAISFDGGNTYADSVKGRFRISRDNAKNTVYLQMNSLKPEDTAVYYCNASYEYNAGRVETEYDYWGQGTQVTVSS” as the sequence, how does the “polyreactivity (PSR sort gate)” value read?
A: low polyreactivity

Q: For “QVQLVESGGGLVQAGGSLRLSCAASGLTFDRYVMGWYRQAPGKERELVAGISTGGSSTYYADSVKGRFTISRDNAKNTVYLQMNSLKPEDTAVYYCAAKLSYWSRHNYWGQGTQVTVSS”, which “polyreactivity (PSR sort gate)” value is on record?
A: high polyreactivity

Q: With “QVQLVESGGGLVQAGGSLRLSCAASGLTFDSSAMGWYRQAPGTERELVAAISFSGGRTYYADSVKGRFTISRDTAKNTVYLQMNSLKPDDTAVYYCAAQLRYKYDYWGHGTQVTVSS” as the sequence, how does the “polyreactivity (PSR sort gate)” value read?
A: high polyreactivity

Q: With “QVQLVESGGGLVQAGGSLRLSCAASGLTFDYYAMGWYRQAPGKERELVAAIDWSGGSTYYADSVKGRFTISRDNAKNTVYLQMNSLKPEDSAVYYCATESDDSGMDYWGQGTQVTVSS” as the sequence, how does the “polyreactivity (PSR sort gate)” value read?
A: low polyreactivity

Q: Which “polyreactivity (PSR sort gate)” value does the source give for “QVQLVESGGGLVQAGGSLRLSCAASGLTFEDNDMGWYRQAPGKERELVAAISSAGSTSYADSVKGRFTISRDNAKNTVYLQMNSLKPEDTAVYYCAKRYYLYHYDSWGQGTQVTVSS” here?
A: low polyreactivity

Q: For “QVQLVESGGGLVQAGGSLRLSCAASGLTFFRYARGWYRQAPGKERELVATITGRGGSTYYADSVKGRFTISRDNAKNTVYLQMNSLKPEDTAVYYCAAYYSRFRYLHRDYWGQGTQVTVSS”, which “polyreactivity (PSR sort gate)” value is on record?
A: high polyreactivity

Q: With “QVQLVESGGGLVQAGGSLRLSCAASGLTFFTYVMGWYRQAPGKERELVASISERGGSTFYADSVKGRFTISRDNAKNTVYLQMNSLKPEDTAVYYCATVSQSFKYRYRWRAAASDYWGQGTQVTVSS” as the sequence, how does the “polyreactivity (PSR sort gate)” value read?
A: high polyreactivity

Q: Which “polyreactivity (PSR sort gate)” value does the source give for “QVQLVESGGGLVQAGGSLRLSCAASGLTFGAYAMGWYRQAPGKEREFVAAITYSGGSTNYADSVKGRFTISRDNAKNTVYLQMNSLKPEDTAVYYCNAGYYSPWAFYPYDYWGQGTQVTVSS” here?
A: high polyreactivity

Q: Which “polyreactivity (PSR sort gate)” value does the source give for “QVQLVESGGGLVQAGGSLRLSCAASGLTFGFNAMGWYRQAPGKERELVAVIDSGGSTNYADSVKGRFTISRDNAKNTVYLQMNSLKPEDTAVYYCAADYTGFYPDGSDVDYDYWGQGTQVTVSS” here?
A: low polyreactivity

Q: With “QVQLVESGGGLVQAGGSLRLSCAASGLTFGGYAMGWYRPAPGKERELVAAISWSGGRTYYADSVKGRFTISRDNAKNTVYLQMNSLKPEDTAVYYCAARKLVVNLREDYWGQGTQVTVSS” as the sequence, how does the “polyreactivity (PSR sort gate)” value read?
A: high polyreactivity

Q: Which “polyreactivity (PSR sort gate)” value does the source give for “QVQLVESGGGLVQAGGSLRLSCAASGLTFGGYAMGWYRQAPGKERELVAAISRSGGSTYYADSVKGRFTISRDNAKNTVYLQMNSLKPEDTAVYYCAAVLSVRVYGYDYWGQGTQVTVSS” here?
A: low polyreactivity

Q: Which “polyreactivity (PSR sort gate)” value does the source give for “QVQLVESGGGLVQAGGSLRLSCAASGLTFGNYAMGWYRQAPGKERELVAAISKRGGTTYYADSVKARFTISRDNAKNTVYLQMNSLKPEDTAVYYCSARDYSHPTDDNYWGQGTQVTVSS” here?
A: high polyreactivity

Q: With “QVQLVESGGGLVQAGGSLRLSCAASGLTFGRNAMGWYRQAPCKERDLVAAITFNGGSTYYADSVKGRFTISRDNEKNTVYIQMNSLKPEDTAVYYCAARLWRRTRFDYWGQGTQVTVSS” as the sequence, how does the “polyreactivity (PSR sort gate)” value read?
A: high polyreactivity

Q: With “QVQLVESGGGLVQAGGSLRLSCAASGLTFGRYAMGWYRQAPGKERELVAAITARVGRTYYADSVKGRFTISRDNAKNTVYLQMNSLKPEDTAVYYCAAGPSYYWYSHEKYDYWGQGTQVTVSS” as the sequence, how does the “polyreactivity (PSR sort gate)” value read?
A: high polyreactivity

Q: With “QVQLVESGGGLVQAGGSLRLSCAASGLTFGSYAMGWYRQAPGKERELVAAITWSGGSTYYADSVKGRFTISRDNAKNTVYLQMNSLKPEDTAVYYCAVYSTEYKLLWGGIAYDYWGQGTQVTVSS” as the sequence, how does the “polyreactivity (PSR sort gate)” value read?
A: low polyreactivity

Q: With “QVQLVESGGGLVQAGGSLRLSCAASGLTFGTNAMGWYRQAPGKERELVAAISTSSGSTYYADSVKGRFTISRDNAKNTVYLQMNSLKPEDTAGYYCAAVTVTKLSYYRYYYWGQGTQVTVSS” as the sequence, how does the “polyreactivity (PSR sort gate)” value read?
A: low polyreactivity

Q: With “QVQLVESGGGLVQAGGSLRLSCAASGLTFGYYAMGWYRQAPGKERELVAAISQSGGSTYYADSVKGRFTISRDNAKNTVYLQMNSLKPEDTAVYYCATRRYGYRYDQPYSNDYWGQGTQVTVSS” as the sequence, how does the “polyreactivity (PSR sort gate)” value read?
A: low polyreactivity

Q: For “QVQLVESGGGLVQAGGSLRLSCAASGLTFGYYAMGWYRQAPGKERELVAAISRGSSTYYADSVKGRFTISRDNAKNTVYLQMNSLKPEDTAVYYCNALFSYGYWRVRYIVTQYDYWGQGTQVTVSS”, which “polyreactivity (PSR sort gate)” value is on record?
A: high polyreactivity

Q: Which “polyreactivity (PSR sort gate)” value does the source give for “QVQLVESGGGLVQAGGSLRLSCAASGLTFHPYAMGWYRQAPGKERELVAAISSRGTSTYYADSVKGRFTISRDNAKNTVYLQMNSLKPEDTAVYYCAARHGPRAESMYYWGQCTQVTVSS” here?
A: high polyreactivity

Q: Which “polyreactivity (PSR sort gate)” value does the source give for “QVQLVESGGGLVQAGGSLRLSCAASGLTFHRYAMGWYRPAPGKERELVAAINYSGGRTYYADSVKGRFTISRDNAKYTVYLQMNSLKPEDTAVYYCAARFSRVYPRYDYWGQGTQVTVSS” here?
A: high polyreactivity

Q: With “QVQLVESGGGLVQAGGSLRLSCAASGLTFHRYAMGWYRQAPGKERELVAAINYSGGRTYYADSVKGRFTISRDNAKNTVYLQMNSLKPEDTAVYYCNKCYVYHPGSLEYGYWGQGTQVTVSS” as the sequence, how does the “polyreactivity (PSR sort gate)” value read?
A: high polyreactivity

Q: Which “polyreactivity (PSR sort gate)” value does the source give for “QVQLVESGGGLVQAGGSLRLSCAASGLTFHRYAMGWYRQAPGKERELVAAISRSGVTTRYADSVKGRFTISRDNAKNTVYLQMNSLKPEDTAVYYCAAVYRVRKITYDYWGQGTQVTVSS” here?
A: high polyreactivity

Q: Which “polyreactivity (PSR sort gate)” value does the source give for “QVQLVESGGGLVQAGGSLRLSCAASGLTFHRYAMGWYRQAPGKERELVADISSGDSTNYADSVKGRFTISRDNAKNTVYLQMNSLKPEDTAVYYCNTDGYIYRYRFDYWGQGTQVTVSS” here?
A: low polyreactivity

Q: With “QVQLVESGGGLVQAGGSLRLSCAASGLTFIGNAMGWYRQAPGKERELVAAITWSGTSTYYADSVKGRFTISRDNAKNTVYLQMNSLKPEDTAVYYCAAVLRRLGVSYYYWGQGTQVTVSS” as the sequence, how does the “polyreactivity (PSR sort gate)” value read?
A: high polyreactivity

Q: For “QVQLVESGGGLVQAGGSLRLSCAASGLTFIGYVMGWYRQAPGKERELVAAISGSGGSTYYADSVKGRFTISRDNAKNTVYLQMNSLKPEDTAVYYCAARSRVLTRYDYWGQGTQVTVSS”, which “polyreactivity (PSR sort gate)” value is on record?
A: high polyreactivity

Q: Which “polyreactivity (PSR sort gate)” value does the source give for “QVQLVESGGGLVQAGGSLRLSCAASGLTFIVYAMAWYRQAPGKERELVADITWSGGSTYYADSVKGRFTISRDNAKNTVYLQMNSLKPEDTAVYYCNRQSAKIMDYWGQGTQVTVSS” here?
A: low polyreactivity

Q: For “QVQLVESGGGLVQAGGSLRLSCAASGLTFIYYAMGWYRQAPGKEREMVAAISTSGASTYYADSVKGRFTISRDNAKNTVYLQMNSLKPEVSAVYYCNGEYFGEYRDYGYWGQGTLVTVSS”, which “polyreactivity (PSR sort gate)” value is on record?
A: low polyreactivity

Q: For “QVQLVESGGGLVQAGGSLRLSCAASGLTFKTYAMGWYRQAPGKERELVAAITRNGGSTYYADSVKGRFTISRDNAKNTVYLQMNSLKPEDTAVYYCAARRAYDNRHDYWGQGTQVTVSS”, which “polyreactivity (PSR sort gate)” value is on record?
A: high polyreactivity

Q: Which “polyreactivity (PSR sort gate)” value does the source give for “QVQLVESGGGLVQAGGSLRLSCAASGLTFKWYAMGWYRQAPGKERELVAASSRDGSTYYADSVKGRFTLSRDNAKNTVYLQMTSLKPEDTAVDYCAADIWPSSLLADEYDYWGQGTQVTVSS” here?
A: high polyreactivity

Q: Which “polyreactivity (PSR sort gate)” value does the source give for “QVQLVESGGGLVQAGGSLRLSCAASGLTFKYYAMGWYRQAPGKESELVAAITSTGGRTYYADSVKGRFTISRDNAKNTVYLQMNSLKPEDTAVYYCAAYYVGSSKYDSWGQGTQVTVSS” here?
A: low polyreactivity

Q: Which “polyreactivity (PSR sort gate)” value does the source give for “QVQLVESGGGLVQAGGSLRLSCAASGLTFNAYAMGWYRQAPGKERELVADITTSDGSTFYADSVKGRFTISRDNAKNTVYLQMNSLKPEDTAVYYCNADAYGWYSGPWFKWLLWYDYWGQGTQVTVSS” here?
A: low polyreactivity

Q: For “QVQLVESGGGLVQAGGSLRLSCAASGLTFNRYAMGWYRQARGKERELVAAISINGGSTYYADSVKGRFTISRDNAKNTVYLQMNSLKPEDTAVYYCAARRVQRPSTYGYWGQGTQVTVSS”, which “polyreactivity (PSR sort gate)” value is on record?
A: high polyreactivity

Q: Which “polyreactivity (PSR sort gate)” value does the source give for “QVQLVESGGGLVQAGGSLRLSCAASGLTFNYYDRGWYRQAPGKERELVAAISRSRTNTSYADSVKGRFTISRDNAKNTVYLQMNSLKPEDTAVYYCNAAGVYLAAGPYTANFNYNYWGQGTQVTVSS” here?
A: low polyreactivity

Q: Which “polyreactivity (PSR sort gate)” value does the source give for “QVQLVESGGGLVQAGGSLRLSCAASGLTFPLYVMGWYRQAPGKARELVATITGGGSTTYADSVKGRFTISRDNAKNTVYFQMNSLKPEDTAVYYCAADFVFVATPLRYDYWGPGTQVTVSS” here?
A: low polyreactivity

Q: Which “polyreactivity (PSR sort gate)” value does the source give for “QVQLVESGGGLVQAGGSLRLSCAASGLTFPRYTMGWYRQPPGKERELVAAISSSTGTTNYADSVKGRFTISRDNAKNTVYLQMNSLKPEDTAVYYCAKRVSSWLGFHLDYWGQGTQVTVSS” here?
A: low polyreactivity

Q: With “QVQLVESGGGLVQAGGSLRLSCAASGLTFPSYAMGWYRQAPGKERELVAAISRRSGSTYYADSVKGRFTISRDNAKNTVYLQMNSLKPEDTAVYYCTTRRGERGYWGQGTQVTVSS” as the sequence, how does the “polyreactivity (PSR sort gate)” value read?
A: high polyreactivity

Q: Which “polyreactivity (PSR sort gate)” value does the source give for “QVQLVESGGGLVQAGGSLRLSCAASGLTFPTYAMGWYRQAPGKERELVAAISRIGGRTYYADSVKGRFTISRDNAKNTFYLQMNSLKPEDTAVYYCAADVIKGCVEYDYWGQGTKVTVSS” here?
A: high polyreactivity

Q: For “QVQLVESGGGLVQAGGSLRLSCAASGLTFPVYTMGWYRQAPGKEREFVAAITYNGGRTYYADSVKGRFTISRDNAKNTVYLQMNSLKPEDTAVYYCAAEYGTYFVRYYAGASYRYGYWGQGTQVTVSS”, which “polyreactivity (PSR sort gate)” value is on record?
A: low polyreactivity
